# Laboratory results published in article PMC7078208, “Interaction of SHP-2 SH2 domains with PD-1 ITSM induces PD-1 dimerization and SHP-2 activation” (Communications Biology, 2020).
# Square brackets hold non-standard residues; d marks the D form. Ends that are not written are not given here. pY = N[C@@H](Cc1ccc(OP(=O)(O)O)cc1)C(=O)O
# Columns and labels:
# [1] = biological target: t-SHP-2 (SHP-2 amino acids 1-225, tandem N-SH2 and C-SH2 domains) (UniProt Q06124); assay: ITC; MicroCal ITC200; peptide (50-100 uM) titrated into t-SHP-2 (3-5 uM), 19 injections, 20 C; 50 mM HEPES pH 7.4, 100 mM NaCl, 5 mM TCEP
# SHP-2-WT = assay: SHP-2 phosphatase activity, DiFMUP substrate; format: biochemical
# PD1LgY248F = assay: NanoBiT proximity assay (split luciferase) in HEK-293 cells; settings: PD1SmY248F + PD1LgY248F + SHP2WT, Fyn (-) kinase inactive; parent: est. 100; read off a plot
# [2] = biological target: T1, t-SHP-2 (SHP-2 tandem SH2 domains, amino acids 1-225) (Homo sapiens, UniProt Q06124); assay: Isothermal titration calorimetry of PD-1 phosphopeptides with t-SHP-2; format: binding; settings: for Kd: ITC, MicroCal ITC200, peptide 50-100 µM titrated into t-SHP-2 3-5 µM, 19 injections, 20 °C, 50 mM HEPES pH 7.4, 100 mM NaCl, 5 mM TCEP
# T1 construct: made in house
# T1 sequence (Q06124 1-225): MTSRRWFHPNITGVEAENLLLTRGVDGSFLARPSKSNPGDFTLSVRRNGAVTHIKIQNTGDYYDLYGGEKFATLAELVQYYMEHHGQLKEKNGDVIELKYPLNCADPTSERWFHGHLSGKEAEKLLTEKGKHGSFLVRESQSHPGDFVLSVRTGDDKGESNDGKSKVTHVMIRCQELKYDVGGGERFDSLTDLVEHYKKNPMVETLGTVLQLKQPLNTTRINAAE
# Procedure: Isothermal titration calorimetry (ITC) was performed on a MicroCal ITC200 instrument (Malvern, Worcestershire, UK), using established methodology. Briefly, PD-1 phosphopeptides (PD-1cyto-pITIM-pITSM, PD-1cyto-ITIM-pITSM and PD-1cyto-pITIM-ITSM) and SHP-2 tandem-SH2 protein (t-SHP-2) were prepared in buffer containing 50 mM HEPES pH 7.4, 100 mM NaCl, 5 mM TCEP. Each peptide (50–100 µM) was titrated into a t-SHP-2 sample (3–5 µM) in a total of 19 injections at 20^ oC. We used reference power 6.0, initial delay 60 s and stirring speed 750 rpm. Injection volume was 0.4 µl for first injection and 2 µl for subsequent injections, injection duration was 0.8 s for first injection and 4 s for subsequent injections, with 150 s spacing and 5 s filter period. Reference cell was filled with sterile Milli-Q water. Controls of peptide titrations into buffer were run for baseline corrections. Data analysis was done using Origin 7.0 software.
# PD1LgDM = assay: NanoBiT proximity assay (split luciferase) in HEK-293 cells; settings: PD1SmDM + PD1LgDM + SHP2WT, read off a plot
# SHP-2-full-length = biological target: T2, SHP-2-full-length (Homo sapiens, UniProt Q06124); assay: SPR: SHP-2-full-length binding to immobilized PD-1 phosphopeptides; settings: identical conditions as for ITSM-pY248 surface
# T2 construct: glutathione-S-transferase (GST) fusions to SHP-2 wild-type full-length (SHP-2-WT-FL) using the pGEX 4T-3 vector; GST (N, cleaved yes); made in house; host or cells: E. coli BL21(D3)LysS
# T2 sequence (Q06124 1-593): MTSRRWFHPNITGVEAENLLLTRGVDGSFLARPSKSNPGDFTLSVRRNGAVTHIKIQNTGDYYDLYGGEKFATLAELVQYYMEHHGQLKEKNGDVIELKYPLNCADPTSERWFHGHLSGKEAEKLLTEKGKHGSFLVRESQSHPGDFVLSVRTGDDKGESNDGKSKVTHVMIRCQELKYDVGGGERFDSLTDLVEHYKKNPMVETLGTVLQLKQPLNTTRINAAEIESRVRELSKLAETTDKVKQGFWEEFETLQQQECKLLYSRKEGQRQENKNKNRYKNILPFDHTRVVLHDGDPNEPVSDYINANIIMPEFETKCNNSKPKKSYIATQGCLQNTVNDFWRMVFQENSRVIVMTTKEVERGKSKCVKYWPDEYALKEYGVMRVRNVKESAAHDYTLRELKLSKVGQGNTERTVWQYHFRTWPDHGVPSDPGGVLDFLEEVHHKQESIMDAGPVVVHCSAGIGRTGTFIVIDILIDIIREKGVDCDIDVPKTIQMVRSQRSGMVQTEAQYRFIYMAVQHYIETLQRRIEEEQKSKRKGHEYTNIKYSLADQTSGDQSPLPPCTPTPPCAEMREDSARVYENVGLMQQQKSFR
# PD1LgY223F = assay: NanoBiT proximity assay (split luciferase) in HEK-293 cells; settings: PD1SmY223F + PD1LgY223F + SHP2WT, Fyn (-) kinase inactive; parent: est. 100; read off a plot
# SHP-2 1-225 [3] = biological target: SHP-2 1-225 (UniProt Q06124); assay: native PAGE mobility shift; settings: reference: PD-1cyto-pITIM-pITSM (pY223 + pY248)
# SHP-2 1-225 [4] = biological target: SHP-2 1-225 (UniProt Q06124); assay: ITC; settings: reference: PD-1cyto-pITIM-pITSM (pY223 + pY248); sites Y248
# SHP-2 [5] = biological target: SHP-2 (UniProt Q06124); assay: PD-1 IP, SHP-2 blot; settings: reference: PD-1 wild type; sites Y248
# SHP-2 [6] = biological target: SHP-2 (UniProt Q06124); assay: PD-1 IP, FLAG (SHP-2) blot; settings: reference: PD-1 wild type; sites Y248
# [7] = biological target: SHP-2 wild-type full-length, purified recombinant protein (UniProt Q06124)
# [8] = tested on: PD-1-SmBiT: PD-1-LgBiT complex (PD-1: PD-1 interaction) in HEK-293 cells; assay: NanoBiT assay for PD-1 dimerization in HEK-293 cells; format: cell-based, human; settings: HEK-293 transfected with PD-1-SmBiT, active Fyn and SHP-2, increasing amounts, Fig. 4e
compound,measurement,setting,value
Bisphosphoryl peptide of native sequence of PD-1 cytoplasmic tail (PD-1cyto-pITIM-pITSM),stoichiometry N (peptide per t-SHP-2),[1],1
"VD(pY)GELDFQ-Ahx4-SVD(pY)GELDFQW [bpITIM, bisphosphoryl ITIM-ITIM peptide with 4-Ahx spacer]",increase in the catalytic activity of SHP-2 compared to negative control pIRSY727,"SHP-2-WT; DiFMUP substrate, Fig. 5a",did not induce an increase
PD-1 NanoBiT fusions (PD-1-LgBiT and PD-1-SmBiT) in HEK-293 cells with kinase-inactive Fyn (from UniProt Q15116) Y248F,response,PD1LgY248F,80 RLU
SAVPVFSVD(pY)GELDFQWREKTPEPPVPCVPEQTEYATIVFPS (SAVPVFSVD[pY]GELDFQWREKTPEPPVPCVPEQTEYATIVFPS) [PD-1cyto-pITIM-ITSM],peptide: t-SHP-2 interaction by ITC,[2]; same conditions,not detectable
PD-1 NanoBiT fusions (PD-1-LgBiT and PD-1-SmBiT) in HEK-293 cells with kinase-inactive Fyn (from UniProt Q15116) DM,response,"PD1LgDM; Fyn (-) kinase inactive, parent: est. 100",88 RLU
CC[C@H](C)[C@H](NC(=O)[C@@H](NC(=O)[C@H](C)NC(=O)[C@H](Cc1ccc(OP(=O)(O)O)cc1)NC(=O)[C@H](CCC(=O)O)NC(=O)[C@@H](NC(=O)[C@H](CCC(N)=O)NC(=O)[C@H](CCC(=O)O)NC(=O)[C@@H]1CCCN1C(=O)[C@@H](NC(=O)[C@H](CS)NC(=O)[C@@H]1CCCN1C(=O)[C@@H](NC(=O)[C@@H]1CCCN1C(=O)[C@@H]1CCCN1C(=O)[C@H](CCC(=O)O)NC(=O)[C@@H]1CCCN1C(=O)[C@@H](NC(=O)[C@H](CCCCN)NC(=O)[C@H](CCC(=O)O)NC(=O)[C@H](CCCNC(=N)N)NC(=O)[C@H](Cc1c[nH]c2ccccc12)NC(=O)[C@H](CCC(N)=O)NC(=O)[C@H](Cc1ccccc1)NC(=O)[C@H](CC(=O)O)NC(=O)[C@H](CC(C)C)NC(=O)[C@H](CCC(=O)O)NC(=O)CNC(=O)[C@H](Cc1ccc(OP(=O)(O)O)cc1)NC(=O)[C@H](CC(=O)O)NC(=O)[C@@H](NC(=O)[C@H](CO)NC(=O)[C@H](Cc1ccccc1)NC(=O)[C@@H](NC(=O)[C@@H]1CCCN1C(=O)[C@@H](NC(=O)[C@H](C)NC(=O)[C@@H](N)CO)C(C)C)C(C)C)C(C)C)[C@@H](C)O)C(C)C)C(C)C)[C@@H](C)O)[C@@H](C)O)C(=O)N[C@H](C(=O)N[C@@H](Cc1ccccc1)C(=O)N1CCC[C@H]1C(=O)N[C@@H](CO)C(=O)O)C(C)C [PD-1cyto-pITIM-pITSM],Kd,[2],0.0159 µM
CC[C@H](C)[C@H](NC(=O)[C@@H](NC(=O)[C@H](C)NC(=O)[C@H](Cc1ccc(OP(=O)(O)O)cc1)NC(=O)[C@H](CCC(=O)O)NC(=O)[C@@H](NC(=O)[C@H](CCC(N)=O)NC(=O)[C@H](CCC(=O)O)NC(=O)[C@@H]1CCCN1C(=O)[C@@H](NC(=O)[C@H](CS)NC(=O)[C@@H]1CCCN1C(=O)[C@@H](NC(=O)[C@@H]1CCCN1C(=O)[C@@H]1CCCN1C(=O)[C@H](CCC(=O)O)NC(=O)[C@@H]1CCCN1C(=O)[C@@H](NC(=O)[C@H](CCCCN)NC(=O)[C@H](CCC(=O)O)NC(=O)[C@H](CCCNC(=N)N)NC(=O)[C@H](Cc1c[nH]c2ccccc12)NC(=O)[C@H](CCC(N)=O)NC(=O)[C@H](Cc1ccccc1)NC(=O)[C@H](CC(=O)O)NC(=O)[C@H](CC(C)C)NC(=O)[C@H](CCC(=O)O)NC(=O)CNC(=O)[C@H](Cc1ccc(O)cc1)NC(=O)[C@H](CC(=O)O)NC(=O)[C@@H](NC(=O)[C@H](CO)NC(=O)[C@H](Cc1ccccc1)NC(=O)[C@@H](NC(=O)[C@@H]1CCCN1C(=O)[C@@H](NC(=O)[C@H](C)NC(=O)[C@@H](N)CO)C(C)C)C(C)C)C(C)C)[C@@H](C)O)C(C)C)C(C)C)[C@@H](C)O)[C@@H](C)O)C(=O)N[C@H](C(=O)N[C@@H](Cc1ccccc1)C(=O)N1CCC[C@H]1C(=O)N[C@@H](CO)C(=O)O)C(C)C [PD-1cyto-ITIM-pITSM],Kd,[2],0.775 µM
"KEDPSAVPVFSVD[pY]GELDFQWRE [pITIM, monophosphorylated human PD-1 ITIM-pY223 phosphopeptide]",increase in the catalytic activity of SHP-2 compared to negative control pIRSY727,"SHP-2-WT; DiFMUP substrate, Fig. 5a",did not induce an increase
same,effect on SHP-2 activation induced by bpITSM (competition),"SHP-2-WT; bpITSM 0.01 µM with increasing amounts of monophosphorylated peptide, Fig. 5d",only when added at very high molar concentrations (1000x excess of bpITSM)
same,specific interaction of SHP-2 protein with peptide-coated surface,SHP-2-full-length,no specific interaction
PD-1 NanoBiT fusions (PD-1-LgBiT and PD-1-SmBiT) in HEK-293 cells with kinase-inactive Fyn (from UniProt Q15116) Y223F,response,PD1LgY223F,90 RLU
Monophosphoryl peptide of native sequence of PD-1 cytoplasmic tail (PD-1cyto-ITIM-pITSM),stoichiometry N (peptide per t-SHP-2),[1],2
"TE(pY)ATIVFP-Ahx10-QTE(pY)ATIVFPS [bpITSM-Ahx10, bisphosphoryl ITSM peptide with 10-Ahx spacer]",catalytic activity of SHP-2 compared to the negative control pIRSY727,"SHP-2-WT; 3x lower enzyme concentration (0.5 µg/ml SHP-2-WT), Fig. 5e",caused a higher increase in SHP-2 activation
PD-1 cytoplasmic tail peptide (from UniProt Q15116) PD-1cyto-pITIM-ITSM (pY223 only),binding against the reference,SHP-2 1-225 [3]; sites Y248,lost
same,KD,SHP-2 1-225 [4],lost; reference 0.0159
PD-1 (from UniProt Q15116) PD-1 Y248F,binding against the reference,SHP-2 [5],lost
same,binding against the reference,SHP-2 [6],lost
Bisphosphoryl ITSM peptide pITSM-Ahx4-pITSM (bpITSM),potency in inducing SHP-2 phosphatase activity relative to the bisphosphoryl peptide bpIRS,[7],3 fold
PD-1 NanoBiT fusions (PD-1-LgBiT and PD-1-SmBiT) in HEK-293 cells with kinase-active Fyn (from UniProt Q15116) DM,response,"PD1LgDM; Fyn (+) kinase active, parent: est. 255",90 RLU
PD-1 cytoplasmic tail peptide (from UniProt Q15116) PD-1cyto-ITIM-pITSM (pY248 only),binding against the reference,SHP-2 1-225 [3]; sites Y223,same
CC1(N)CCN(c2cnc(-c3cccc(Cl)c3Cl)c(N)n2)CC1 [SHP099],effect on PD-1: PD-1 interaction,[8],dose-dependent inhibition of PD-1: PD-1 interaction
"VD(pY)GELDFQ-Ahx4- QTE(pY)ATIVFPS [pITIM-pITSM, bisphosphoryl ITIM-ITSM peptide with 4-Ahx spacer]",peptide concentration at which catalytic activity of SHP-2 is increased,"SHP-2-WT; DiFMUP substrate, compared to pIRSY727 and pIRSY1172, Fig. 5a",above 1 µM
